Common to all, as to type: biochemical
For assay [1], the target named is T1, thrombin (Homo sapiens, UniProt P00734).
T1 construct: from tissue; host or cells: whole blood of subjects
Description: Coagulation monitoring: thrombin activity in whole blood of subjects taking anticoagulant vs control. As for the experimental part: To detect thrombin activity and monitor coagulation, the thrombin targeted charge-changing peptide shown in FIG. 9 (and with the sequence of Ac-N-D^−-D^−-Nle-T-P-R^+//G-S-A-G-A-G-A-G-diamino-ethyl-BFL (SEQ ID NO:1)) was incubated in a drop of whole blood from subjects taking an anticoagulant (aspirin) and from control subjects that were not taking an anticoagulant. Fluorescence signal, indicating specific binding of the peptide to thrombin in the whole blood sample, was measured at various time points up to 30 minutes.

Assay [2] has as its target T1, thrombin. The experiment in a line: Whole blood thrombin detection with charge-changing peptide. The settings on record: untreated whole blood. The method, then: The thrombin targeted charge-changing peptide shown in FIG. 9 (and with the sequence Ac-N-D^−-D^−-Nle-T-P-R^+//G-S-A-G-A-G-A-G-diamino-ethyl-BFL (SEQ ID NO:1)) was incubated in untreated whole blood for up to 33 minutes. A negative control was also prepared See FIG. 11A. Fluorescence was measured at 3 minute intervals during incubation.

For assay [3], the target named is T1, thrombin. Description: Thrombin detection using thrombin-specific charge-changing peptide substrate in 1×PBS or citrated blood. The settings on record: 0-100 nM. As for the experimental part:
Various concentrations (0 nM, 0.5 nM, 5 nM, 10 nM, 20 nM, or 100 nM) of the thrombin targeted charge-changing peptide shown in FIG. 9 (and with the sequence Ac-N-D^−-D^−-Nle-T-P-R^+//G-S-A-G-A-G-A-G-diamino-ethyl-BFL (SEQ ID NO:1)) was incubated in either 1×PBS (FIG. 10A) or citrated blood (FIG. 10B), both of which contained thrombin. After incubation, fluorescence was measured, indicating specific binding of the peptide to the thrombin in the sample.

Another assay deals with cathepsin-S (Homo sapiens, UniProt P25774). The experiment in a line: Cathepsin-S detection in buffer with charge-changing peptide. The settings on record: 1×PBS buffer with varying concentrations of cathepsin-S. As for the experimental part:
The cathepsin-S targeted charge-changing peptide shown in FIG. 9 (and with the sequence N-SUC^−-E^−-G-R^+-W-H-T-V-G//L-R^+-W-E^−-C(Cy5^−)-R^+CO-NH2 (SEQ ID NO:5)) was incubated in 1×PBS buffer with varying concentrations of cathepsin-S. After incubation, fluorescence was measured, indicating specific binding of the peptide to the cathepsin-S in the sample.

Starred links: 1 amine or outer side, 2 acyl side, 3 side chain; linkers in the order of their positions; H or OH if unused. Non-standard residues stand in square brackets, D forms with d. *: point of attachment. BFL = BODIPY FL (diaminoethyl-BODIPY FL label), CC1=CC(C)=[N+]2C1=Cc1ccc(CCC(=O)NCCN*)n1[B-]2(F)F; diaminoethyl = diaminoethyl linker to BODIPY FL label; Suc = O=C(CCC(=O)[*:2])[*:1]; Cy5 = Cy5 fluorescent dye; Nle = CCCC[C@H](N)C(=O)O

cathepsin-S, sequence (P25774 115-331, species assumed): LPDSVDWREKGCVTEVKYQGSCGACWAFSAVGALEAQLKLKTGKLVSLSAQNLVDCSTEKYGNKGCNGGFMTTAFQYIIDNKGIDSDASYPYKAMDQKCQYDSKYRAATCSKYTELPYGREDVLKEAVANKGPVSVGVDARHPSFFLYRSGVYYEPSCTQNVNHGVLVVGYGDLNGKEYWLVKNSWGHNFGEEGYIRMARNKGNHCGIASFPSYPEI

In the case of `CC(=O)Oc1ccccc1C(=O)O` [aspirin, reference compound], the “Rate of fluorescence increase (thrombin activity), anticoagulant subjects vs control” value on thrombin [1] (whole blood from subjects taking aspirin vs subjects not taking an anticoagulant, up to 30 minutes) is reported as “more quickly in the control group”.
In the case of “Ac-N-D^−-D^−-Nle-T-P-R^+//G-S-A-G-A-G-A-G-diamino-ethyl-BFL (Ac-NDD[Nle]TPRGSAGAGAG-{diaminoethyl-BFL}) [SEQ ID NO:1, thrombin targeted charge-changing fluorescent peptide substrate]”, in the assay with thrombin [2] (incubation up to 33 minutes), the “Time of peak fluorescence values” is on record as “about 18 minutes”. The “Fluorescence signal during incubation” value in the assay with thrombin [2] (up to 33 minutes, measured at 3 minute intervals) is on record as “increased over time”. The Fluorescence after incubation result with thrombin [3] (1×PBS containing thrombin) and with thrombin [3] (citrated blood containing thrombin) was “Fluorescence increased with increasing thrombin concentration” in each case. The “Fluorescence signal (thrombin activity) over time” value with thrombin [1] (drop of whole blood, time points up to 30 minutes, both subject groups) is given as “increased in both subject groups over time”.
As for “N-SUC^−-E^−G-R^+-W-H-T-V-G//L-R^+-W-E^−-C(Cy5^−)-R^+-CO-NH2 (Suc-EGRWHTVGLRWEC(Cy5)R-NH2) [SEQ ID NO:5, cathepsin-S targeted charge-changing fluorescent peptide substrate]”, the Fluorescence after incubation entry with cathepsin-S was “Fluorescence increased with increasing cathepsin-S concentration”.

The values are drawn from patent publication US11506662B2, “Detection, identification, and purification of degradative and non-degradative enzymes in biological samples” (The Regents of the University of California, priority 2016, dated 2022).
